# Assay results: US20230212319A1, “NOVEL ANTIGEN BINDING DOMAINS AND SYNTHETIC ANTIGEN RECEPTORS INCORPORATING THE SAME” (University of Southern California, priority 2020, published 2023)
# B1: 22016 (protein)
# chain: MDWIWRILFLVGAATGAHSQLQLQESGPGLVKPSETLSLTCTVSGGSVSSSSYYWGWIRQPPGKRLELIGSIYYGGSTYFNPSLKTRVTISVDTSKNQFSLKLSSVTAADTAVYYCAGGDTYGPVGQWPSDYRGQGTLVTVSSLEDLKNVFPPEVAVFEPSEAEISHTQKATLVCLATGFYPDHVELSWWVNGKEVHSGVCTDPQPLKEQPALNDSRYCLSSRLRVSATFWQNPRNHFRCQVQFYGLSENDEWTQDRAKPVTQIVSAEAWGRADCGFTSESYQQGVLSATILYEILLGKATLYAVLVSALVLMAMVKRKDSRGRAKRSGSGATNFSLLKQAGDVEENPGPTSMDWIWRILFLVGAATGAHSFEQVQLVESGGGLVQPGGSLRLSCAASGFTFTNHAMSWVRQAPGKGLELVSSISGNGRTTYYADSVKGRFTISRDISKNTLDLQMNSLRAEDTAVYYCAKDGGETLVDSRGQGTLVTVSSTRIQNPDPAVYQLRDSKSSDKSVCLFTDFDSQTNVSQSKDSDVYITDKCVLDMRSMDFKSNSAVAWSNKSDFACANAFNNSIIPEDTFFPSPESSCDVKLVEKSFETDTNLNFQNLSVIGFRILLLKVAGFNLLMTLRLWSSRAKRSGSGVKQTLNFDLLKLAGDVESNPGPSRGHMTEYKPTVRLATRDDVPRAVRTLAAAFADYPATRHTVDPDRHIERVTELQELFLTRVGLDIGKVWVADDGAAVAVWTTPESVEAGAVFAEIGPRMAELSGSRLAAQQQMEGLLAPHRPKEPAWFLATVGVSPDHQGKGLGSAVVLPGVEAAERAGVPAFLETSAPRNLPFYERLGFTVTADVEVPEGPRTWCMTRKPGA
# B2: 21988 (protein)
# chain: MALPVTALLLPLALLLHAARPEVQLLESGGGLVQPGGSLRLSCAASGFTFSSYAMSWVRQAPGKGLEWVSSISGSGDYIYYADSVKGRFTISRDISKNTLYLQMNSLRAEDTAVYYCAKEGTGANSSLADYRGQGTLVTVSSLEDLKNVFPPEVAVFEPSEAEISHTQKATLVCLATGFYPDHVELSWWVNGKEVHSGVCTDPQPLKEQPALNDSRYCLSSRLRVSATFWQNPRNHFRCQVQFYGLSENDEWTQDRAKPVTQIVSAEAWGRADCGFTSESYQQGVLSATILYEILLGKATLYAVLVSALVLMAMVKRKDSRGRAKRSGSGATNFSLLKQAGDVEENPGPTSMDWIWRILFLVGAATGAHSFEVQLLESGGGLIQPGGSLRLSCAASGFTFSSHAMTWVRQAPGKGLEWVSAISGSGDYTHYADSVKGRFTISRDNSKNTVYLQMNSLRAEDSAVYYCAKDEDGGSLLGHRGQGTLVTVSSTRIQNPDPAVYQLRDSKSSDKSVCLFTDFDSQTNVSQSKDSDVYITDKCVLDMRSMDFKSNSAVAWSNKSDFACANAFNNSIIPEDTFFPSPESSCDVKLVEKSFETDTNLNFQNLSVIGFRILLLKVAGFNLLMTLRLWSSRAKRSGSGVKQTLNFDLLKLAGDVESNPGPSRGHMTEYKPTVRLATRDDVPRAVRTLAAAFADYPATRHTVDPDRHIERVTELQELFLTRVGLDIGKVWVADDGAAVAVWTTPESVEAGAVFAEIGPRMAELSGSRLAAQQQMEGLLAPHRPKEPAWFLATVGVSPDHQGKGLGSAVVLPGVEAAERAGVPAFLETSAPRNLPFYERLGFTVTADVEVPEGPRTWCMTRKPGA
# B3: 21989 (protein)
# chain: MALPVTALLLPLALLLHAARPQVQLVESGGGLVQPGGSLRLSCAASGFTFTNHAMSWVRQAPGKGLELVSSISGNGRTTYYADSVKGRFTISRDISKNTLDLQMNSLRAEDTAVYYCAKDGGETLVDSRGQGTLVTVSSLEDLKNVFPPEVAVFEPSEAEISHTQKATLVCLATGFYPDHVELSWWVNGKEVHSGVCTDPQPLKEQPALNDSRYCLSSRLRVSATFWQNPRNHFRCQVQFYGLSENDEWTQDRAKPVTQIVSAEAWGRADCGFTSESYQQGVLSATILYEILLGKATLYAVLVSALVLMAMVKRKDSRGRAKRSGSGATNFSLLKQAGDVEENPGPTSMDWIWRILFLVGAATGAHSFEEVQLLESGGGLVQPGGSLRLSCAASGFTFSSYAMSWVRQAPGKGLEWVSSISGSGDYIYYADSVKGRFTISRDISKNTLYLQMNSLRAEDTAVYYCAKEGTGANSSLADYRGQGTLVTVSSTRIQNPDPAVYQLRDSKSSDKSVCLFTDFDSQTNVSQSKDSDVYITDKCVLDMRSMDFKSNSAVAWSNKSDFACANAFNNSIIPEDTFFPSPESSCDVKLVEKSFETDTNLNFQNLSVIGFRILLLKVAGFNLLMTLRLWSSRAKRSGSGVKQTLNFDLLKLAGDVESNPGPSRGHMTEYKPTVRLATRDDVPRAVRTLAAAFADYPATRHTVDPDRHIERVTELQELFLTRVGLDIGKVWVADDGAAVAVWTTPESVEAGAVFAEIGPRMAELSGSRLAAQQQMEGLLAPHRPKEPAWFLATVGVSPDHQGKGLGSAVVLPGVEAAERAGVPAFLETSAPRNLPFYERLGFTVTADVEVPEGPRTWCMTRKPGA
# B4: 22061 (protein)
# chain: MALPVTALLLPLALLLHAARPQVQLVESGGGLVQPGGSLRLSCAASGFTFTNHAMSWVRQAPGKGLELVSSISGNGRTTYYADSVKGRFTISRDISKNTLDLQMNSLRAEDTAVYYCAKDGGETLVDSRGQGTLVTVSSLEGSGGGGSGGGGSGEDLKNVFPPEVAVFEPSEAEISHTQKATLVCLATGFYPDHVELSWWVNGKEVHSGVCTDPQPLKEQPALNDSRYCLSSRLRVSATFWQNPRNHFRCQVQFYGLSENDEWTQDRAKPVTQIVSAEAWGRADCGFTSESYQQGVLSATILYEILLGKATLYAVLVSALVLMAMVKRKDSRGRAKRSGSGATNFSLLKQAGDVEENPGPTSMDWIWRILFLVGAATGAHSFEEVQLLESGGGLVQPGGSLRLSCAASGFTFSSYAMSWVRQAPGKGLEWVSSISGSGDYIYYADSVKGRFTISRDISKNTLYLQMNSLRAEDTAVYYCAKEGTGANSSLADYRGQGTLVTVSSTRIQNPDPAVYQLRDSKSSDKSVCLFTDFDSQTNVSQSKDSDVYITDKCVLDMRSMDFKSNSAVAWSNKSDFACANAFNNSIIPEDTFFPSPESSCDVKLVEKSFETDTNLNFQNLSVIGFRILLLKVAGFNLLMTLRLWSSRAKRSGSGVKQTLNFDLLKLAGDVESNPGPSRGHMTEYKPTVRLATRDDVPRAVRTLAAAFADYPATRHTVDPDRHIERVTELQELFLTRVGLDIGKVWVADDGAAVAVWTTPESVEAGAVFAEIGPRMAELSGSRLAAQQQMEGLLAPHRPKEPAWFLATVGVSPDHQGKGLGSAVVLPGVEAAERAGVPAFLETSAPRNLPFYERLGFTVTADVEVPEGPRTWCMTRKPGA
# B5: 22062 (protein)
# chain: MALPVTALLLPLALLLHAARPQVQLVESGGGLVQPGGSLRLSCAASGFTFTNHAMSWVRQAPGKGLELVSSISGNGRTTYYADSVKGRFTISRDISKNTLDLQMNSLRAEDTAVYYCAKDGGETLVDSRGQGTLVTVSSLEVAALEREDLKNVFPPEVAVFEPSEAEISHTQKATLVCLATGFYPDHVELSWWVNGKEVHSGVCTDPQPLKEQPALNDSRYCLSSRLRVSATFWQNPRNHFRCQVQFYGLSENDEWTQDRAKPVTQIVSAEAWGRADCGFTSESYQQGVLSATILYEILLGKATLYAVLVSALVLMAMVKRKDSRGRAKRSGSGATNFSLLKQAGDVEENPGPTSMDWIWRILFLVGAATGAHSFEEVQLLESGGGLVQPGGSLRLSCAASGFTFSSYAMSWVRQAPGKGLEWVSSISGSGDYIYYADSVKGRFTISRDISKNTLYLQMNSLRAEDTAVYYCAKEGTGANSSLADYRGQGTLVTVSSTRIQNPDPAVYQLRDSKSSDKSVCLFTDFDSQTNVSQSKDSDVYITDKCVLDMRSMDFKSNSAVAWSNKSDFACANAFNNSIIPEDTFFPSPESSCDVKLVEKSFETDTNLNFQNLSVIGFRILLLKVAGFNLLMTLRLWSSRAKRSGSGVKQTLNFDLLKLAGDVESNPGPSRGHMTEYKPTVRLATRDDVPRAVRTLAAAFADYPATRHTVDPDRHIERVTELQELFLTRVGLDIGKVWVADDGAAVAVWTTPESVEAGAVFAEIGPRMAELSGSRLAAQQQMEGLLAPHRPKEPAWFLATVGVSPDHQGKGLGSAVVLPGVEAAERAGVPAFLETSAPRNLPFYERLGFTVTADVEVPEGPRTWCMTRKPGA
# System: L363 cells
# Assay: JNG assay, co-culture with L363 cells
# Format: cell-based
# Details: co-culture with L363
# Experimental: Cellular supernatant is collected and assayed for the induction of cytokines (e.g., IL2).
# JNG (Jurkat cells expressing EGFP under an NFAT promoter) were infected with lentiviral vectors encoding different single chain and multi-chain SARs by spinfection in the presence of 8 µg/ml of Polybrene® (Sigma, Catalog no. H9268). The Jurkat-NFAT-GFP cells are engineered in such a way that the IL-2 promoter, which carries NFAT binding sites, is cloned upstream of the GFP gene. These cells have been used to study signaling via TCR and CAR. The different SARs were stably expressed in Jurkat NFAT-GFP cells by lentiviral mediated gene transfer, followed by selection with puromycin or blasticidin. No drug selection was used in case the construct lacked an antibiotic resistance gene. The SAR-expressing Jurkat-NFAT-GFP cells were cocultured with the target cells at E:T ratio of approximately 1:2 for approximately 4 hours to 18 hours. When the interaction between SIRs and their target antigen results in activation of the NFAT pathway, GFP expression is induced. […] GFP expression was monitored by FACS analysis. The Jurkat-NFAT-GFP (parental) cells were used as control. The structure of different constructs can be determined based on their names. […] The sequence of the other constructs in the table can be similarly determined from their names and by referring to the different Tables of this disclosure that provide the names and SEQ ID NO of the different modules. Alternatively, the composition and modular architecture of the different SAR constructs can be determined from their sequences by bioinformatics tools, including using nucleic acid and amino acids homology searches. A SAR is considered positive in the assay in case the SAR expressing Jurkat-NFAT-GFP cells show greater % GFP positive cells when cultured with the target cell line as compared to parental Jurkat-NFAT-GFP cells. […] In general, the number +/-, +, 2+, 3+, 4+, 5+ refer to approximately 5%, 10%, 20%, 30%, 40% and 50% GFP positive cells. The % of GFP induction in the above assay is dependent not only the relative strength of the SAR but also, among other factors, on the relative level of expression of the SAR in the JNG cells and the relative level of expression of the target antigen in the target cell line. To control for the difference in gene transduction efficiency of the different SAR constructs, the experiment was conducted with JNG cells transduced with SAR constructs co-expressing a drug resistance gene (e.g., puromycin or PAC) followed by drug selection to generate a stable population of SAR-expressing cells. It is to be noted that the drug resistance gene (e.g., PAC) in the SAR constructs is optional and in vivo studies were conducted with SAR constructs lacking the PAC gene.
row,Molecule,NFAT-GFP ASSAY: L363
1,B1,"+/- (refer to approximately 5%, 10%, 20%, 30%, 40% and 50% GFP positive cells)"
2,B2,"+ (refer to approximately 5%, 10%, 20%, 30%, 40% and 50% GFP positive cells)"
3,B3,"+ (refer to approximately 5%, 10%, 20%, 30%, 40% and 50% GFP positive cells)"
4,B4,"L363 (2+) (refer to approximately 5%, 10%, 20%, 30%, 40% and 50% GFP positive cells)"
5,B5,"L363 (+/-) (refer to approximately 5%, 10%, 20%, 30%, 40% and 50% GFP positive cells)"
